The numbers were not newly measured in article PMC3061978, which cites them from elsewhere.

In the data set the target is methylamine dehydrogenase (MADH) (Paracoccus denitrificans) (UniProt P22619). As to the kind of experiment: kinetics.
Sequence of UniProt P22619 (P22619 58-188, chain 1 of 2): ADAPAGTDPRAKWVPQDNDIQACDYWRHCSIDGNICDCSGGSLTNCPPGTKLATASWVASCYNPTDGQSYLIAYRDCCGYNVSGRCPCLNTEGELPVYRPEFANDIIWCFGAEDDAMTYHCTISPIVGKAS
Sequence of UniProt P22619 (P29894 29-417, chain 2 of 2, further chain): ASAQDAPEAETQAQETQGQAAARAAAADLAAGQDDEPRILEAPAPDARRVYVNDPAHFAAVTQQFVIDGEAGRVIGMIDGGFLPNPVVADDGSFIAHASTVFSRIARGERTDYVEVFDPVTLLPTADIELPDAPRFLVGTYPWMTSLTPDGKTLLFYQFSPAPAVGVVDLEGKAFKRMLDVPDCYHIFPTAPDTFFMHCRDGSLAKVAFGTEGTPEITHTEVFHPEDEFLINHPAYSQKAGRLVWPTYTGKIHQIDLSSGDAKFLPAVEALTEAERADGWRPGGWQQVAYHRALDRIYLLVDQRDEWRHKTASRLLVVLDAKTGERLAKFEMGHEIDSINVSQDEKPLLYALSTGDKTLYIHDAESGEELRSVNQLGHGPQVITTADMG

By Kd is commonly meant the equilibrium constant for the complex coming apart. In the case of MauG (from UniProt Q51658), the Kd is 10.1 µM.
